“And” between values parts separate entries of the source, which are not always exact repeats. Equal values may be shown once. Each block holds one binder with its values, some of them ahead of it.
Legend:
[1] = target: T1, Full-length Snu66 (S. cerevisiae, UniProt Q12420 1-587); assay: pull-down
T1 sequence: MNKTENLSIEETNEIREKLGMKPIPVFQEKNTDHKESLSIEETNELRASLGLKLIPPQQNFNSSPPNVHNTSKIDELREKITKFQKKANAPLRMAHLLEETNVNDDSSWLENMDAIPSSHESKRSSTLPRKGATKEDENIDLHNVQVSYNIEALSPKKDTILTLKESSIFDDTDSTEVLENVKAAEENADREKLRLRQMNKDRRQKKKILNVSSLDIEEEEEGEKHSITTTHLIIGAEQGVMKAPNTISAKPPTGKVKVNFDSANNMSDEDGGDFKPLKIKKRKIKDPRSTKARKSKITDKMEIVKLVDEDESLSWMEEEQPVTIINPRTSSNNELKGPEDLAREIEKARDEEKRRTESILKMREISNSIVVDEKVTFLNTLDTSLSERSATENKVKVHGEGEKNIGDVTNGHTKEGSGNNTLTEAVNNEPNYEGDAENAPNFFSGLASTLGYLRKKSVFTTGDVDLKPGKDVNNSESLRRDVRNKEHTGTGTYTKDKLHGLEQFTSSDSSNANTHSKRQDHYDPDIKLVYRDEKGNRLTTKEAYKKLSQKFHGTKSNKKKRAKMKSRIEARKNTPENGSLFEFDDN

[2] = target: ubiquitin (UniProt P0CG48 1-76); assay: ITC

binding result [1]: binds
B1: GST-Hub1 (natural protein)
chain: MIEVVVNDRLGKKVRVKCLAEDSVGDFKKVLSLQIGTQPNKIVLQKGGSVLKDHISLEDYEVHDQTNLELYYL

Kd [2]: 2400 nM and 2300 nM
B2: ZnF-UBP domain from USP5 (domain or fragment)
chain: KQEVQAWDGEVRQVSKHAFSLKQLDNPARIPPCGWKCSKCDMRENLWLNLTDGSILCGRRYFDGSGGNNHAVEHYRETGYPLAVKLGTITPDGADVYSYDEDDMVLDPSLAEHLSHFGIDMLKMQKTDK

Reference: article PMC3988567 (RNA, 2014)
